Each block holds one molecule with its values, some of them ahead of it.
What was measured:
[1] = target: HK97 small terminase triple mutant (Lys4, Arg5 and Arg7 to alanine) (Escherichia coli bacteriophage HK97); test: SEC; mutant proteins on a Superdex S200 10/30 column in 25 mM Tris-HCl, pH 7.5, 1 M NaCl (SI Appendix, Fig. S12)
[2] = target: HK97 small terminase Arg114 to alanine mutant (Escherichia coli bacteriophage HK97); test: as above
[3] = target: HK97 small terminase Lys4 to alanine mutant (Escherichia coli bacteriophage HK97); test: as above
small terminase WT [4] = target: T1, small terminase WT (Escherichia coli bacteriophage HK97, UniProt Q9MBW4 1-161); test: MST; details: rough upper limit of Kapp; mixed specific and nonspecific binding; 10 mM MgCl2; EMSA: 25 mM Tris-HCl pH 7.5, 200 mM NaCl, 10 mM MgCl2, RT 2-3 h, gel at 4 C (DNA 2 uM boundary mapping, 0.5 uM DNA mutants, 20 nM Alexa647 or 40 nM Cy5 DNA) …
T1 sequence: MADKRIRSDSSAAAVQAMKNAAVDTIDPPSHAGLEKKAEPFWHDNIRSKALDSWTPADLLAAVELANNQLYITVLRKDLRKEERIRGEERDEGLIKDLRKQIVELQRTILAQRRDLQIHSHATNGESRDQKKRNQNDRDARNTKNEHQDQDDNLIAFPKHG

[5] = target: HK97 small terminase Arg128 to alanine mutant (Escherichia coli bacteriophage HK97); test: SEC; mutant proteins on a Superdex S200 10/30 column in 25 mM Tris-HCl, pH 7.5, 1 M NaCl (SI Appendix, Fig. S12)
[6] = target: HK97 small terminase (Escherichia coli bacteriophage HK97); test: cryo-EM structure; small terminase with 31 bp DNA (cos 7-37), 1:2 protein:DNA, 25 mM Tris-HCl pH 7.5, 200 mM NaCl, 10 mM MgCl2; complex purified on S200 10/30; 3.0 Å
[7] = target: HK97 small terminase Arg107 to alanine mutant (Escherichia coli bacteriophage HK97); test: SEC; mutant proteins on a Superdex S200 10/30 column in 25 mM Tris-HCl, pH 7.5, 1 M NaCl (SI Appendix, Fig. S12)
[8] = target: HK97 small terminase Arg7 to alanine mutant (Escherichia coli bacteriophage HK97); test: as above
[9] = target: HK97 small terminase Lys100 to alanine mutant (Escherichia coli bacteriophage HK97); test: as above
[10] = target: HK97 small terminase Arg5 to alanine mutant (Escherichia coli bacteriophage HK97); test: as above
small terminase WT [11] = target: T1, small terminase WT; test: EMSA; EMSA: 25 mM Tris-HCl pH 7.5, 200 mM NaCl, 10 mM MgCl2, RT 2-3 h, gel at 4 C (DNA 2 uM boundary mapping, 0.5 uM DNA mutants, 20 nM Alexa647 or 40 nM Cy5 DNA); MST: same buffer + 0.005-0.01% Tween 20, 12 nM DNA, 20 C; details: protein: recombinant; tags: His-SUMO tag removed; chain copies: 9
small terminase WT [12] = target: T1, small terminase WT; test: cryoEM; 3.0 A; 28 of 31 bp modelled; DNA threaded through channel; EMSA: 25 mM Tris-HCl pH 7.5, 200 mM NaCl, 10 mM MgCl2, RT 2-3 h, gel at 4 C (DNA 2 uM boundary mapping, 0.5 uM DNA mutants, 20 nM Alexa647 or 40 nM Cy5 DNA); MST: same buffer + 0.005-0.01% Tween 20, 12 nM DNA, 20 C; details: protein: recombinant; tags: His-SUMO tag removed; chain copies: 9
small terminase WT [13] = target: T1, small terminase WT; test: EMSA; up to 1 uM protein; EMSA: 25 mM Tris-HCl pH 7.5, 200 mM NaCl, 10 mM MgCl2, RT 2-3 h, gel at 4 C (DNA 2 uM boundary mapping, 0.5 uM DNA mutants, 20 nM Alexa647 or 40 nM Cy5 DNA); MST: same buffer + 0.005-0.01% Tween 20, 12 nM DNA, 20 C; details: protein: recombinant; tags: His-SUMO tag removed; chain copies: 9
small terminase WT [14] = target: T1, small terminase WT; test: EMSA; binding abolished; up to 1 uM protein; EMSA: 25 mM Tris-HCl pH 7.5, 200 mM NaCl, 10 mM MgCl2, RT 2-3 h, gel at 4 C (DNA 2 uM boundary mapping, 0.5 uM DNA mutants, 20 nM Alexa647 or 40 nM Cy5 DNA); MST: same buffer + 0.005-0.01% Tween 20, 12 nM DNA, 20 C; details: protein: recombinant; tags: His-SUMO tag removed; chain copies: 9
small terminase WT [15] = target: T1, small terminase WT; test: EMSA; little influence on binding; EMSA: 25 mM Tris-HCl pH 7.5, 200 mM NaCl, 10 mM MgCl2, RT 2-3 h, gel at 4 C (DNA 2 uM boundary mapping, 0.5 uM DNA mutants, 20 nM Alexa647 or 40 nM Cy5 DNA); MST: same buffer + 0.005-0.01% Tween 20, 12 nM DNA, 20 C; details: protein: recombinant; tags: His-SUMO tag removed; chain copies: 9

stoichiometry N [1]: 9
Molecule: HK97 small terminase triple mutant (Lys4, Arg5 and Arg7 to alanine) (natural protein)

stoichiometry N [3]: 9
Molecule: HK97 small terminase Lys4 to alanine mutant (natural protein)

stoichiometry N [5]: 9
Molecule: HK97 small terminase Arg128 to alanine mutant (natural protein)

stoichiometry N [6]: 9
Molecule: HK97 small terminase

stoichiometry N [7]: 9
Molecule: HK97 small terminase Arg107 to alanine mutant (natural protein)

stoichiometry N [8]: 9
Molecule: HK97 small terminase Arg7 to alanine mutant (natural protein)

stoichiometry N [9]: 9
Molecule: HK97 small terminase Lys100 to alanine mutant (natural protein)

stoichiometry N [10]: 9
Molecule: HK97 small terminase Arg5 to alanine mutant (natural protein)

Further lines, the molecule ahead of its results:

Molecule: HK97 small terminase Arg114 to alanine mutant (natural protein)
stoichiometry N [2]: 9

Molecule: cos -20-80 (100 bp)
Kd (small terminase WT [4]): < 100 nM

B1: 21 bp cos oligo (dsDNA)
DNA 1: ACGCTAACCCGATTTTTTTAG
DNA 2: CTAAAAAAATCGGGTTAGCGT
binding result (small terminase WT [11]): binds

B2: 25 bp cos oligo (dsDNA)
DNA 1: TAACGCTAACCCGATTTTTTTAGTT
DNA 2: AACTAAAAAAATCGGGTTAGCGTTA
binding result (small terminase WT [11]): binds

B3: cos 7-37 (31 bp) (dsDNA)
DNA 1: ATTTAACGCTAACCCGATTTTTTTAGTTTTA
DNA 2: TAAAACTAAAAAAATCGGGTTAGCGTTAAAT
binding result (small terminase WT [12]): binds

B4: position 21 C:G to T:A (dsDNA)
DNA 1: ATTTAACGCTAACCTGATTTTTTTAGTTTTA
DNA 2: TAAAACTAAAAAAATCAGGTTAGCGTTAAAT
binding result (small terminase WT [13]): no binding

B5: positions 26-27 G:C (dsDNA)
DNA 1: ATTTAACGCTAACCCGATTCCTTTAGTTTTA
DNA 2: TAAAACTAAAGGAATCGGGTTAGCGTTAAAT
binding result (small terminase WT [14]): no binding

B6: positions 24-29 A:T swapped (dsDNA)
DNA 1: ATTTAACGCTAACCCGAAAAAAATAGTTTTA
DNA 2: TAAAACTATTTTTTTCGGGTTAGCGTTAAAT
binding result (small terminase WT [15]): binds
